Experimental data reported in PMC5789003, “Structural and functional characterization of shaft, anchor, and tip proteins of the Mfa1 fimbria from the periodontal pathogen Porphyromonas gingivalis” (Scientific Reports, 2018).
Where a chain is given by its changes, count along the chain named. “And” between values parts separate entries of the source, which are not always exact repeats. Equal entries are not always repeated.

B1: Mfa2 (anchor protein of the Mfa1 fimbria), wild type, in P. gingivalis (natural protein)
chain: CDKMIYDNYDDCPRGVYVNFYSQTECAENPSYPAEVARLNVYAFDKDGILRSANVFEDVQLSAAKEWLIPLEKDGLYTIFAWGNIDDHYNIGEIKIGETTKQQVLMRLKQDGKWATNIDGTTLWYATSPVVELKNMEDGADQYIHTRANLREYTNRVTVSVDSLPHPENYEIKLASSNGSYRFDGTVAKADSTYYPGETKVVGDSTCRAFFTTLKLESGHENTLSVTHKPTGREIFRTDLVGAILSSQYAQNINLRCINDFDIRLVAHHCNCPDDTYVVVQIWINGWLIHSYEIEL
modifications: lipidated cysteine (Cys29); disulphide bonds Cys54-Cys285 and Cys298-Cys300
B2: Mfa2 C54A (natural protein)
chain: B1 chain with C26A
notes: source: P. gingivalis Δmfa2Δfim complemented with mfa2C54A, whole cell lysate
B3: Mfa2 C285A (natural protein)
chain: B1 chain with C257A
notes: source: P. gingivalis Δmfa2Δfim complemented with mfa2C285A, whole cell lysate

Molecular target: the molecule itself
Test: SDS-PAGE and immunoblot of partially heat-denatured fimbriae (ladder-like pattern)

Protein	stoichiometry N
B1	2 and 3
B2	2 and 3
B3	3 and 2
